B1: 1C4 Fab (Fab, V domains shown)
VH: QIQLVQSGPELKKPGETVKISCKASGYTFTDYGLNWVKQAPGKGLKWMGWINTYSGEPTYNDEFRGRFAFSLETSTITAYLKINNLKNEDTATYFCARGGNWDWYFDVWGAGTTVTVSS
VL: DIVLTQSPATLSVTPGDNVSLSCRASQIISNNLHWYQQKSHESPRLLIKYASQSISGIPSRFSGSGSGTDFTLSINSVETEDFGMYFCQQSNTWPLTCGSGTKLELN
B2: 1C4 (murine monoclonal antibody, IgG format) (antibody, V domains shown)
VH: B1 VH
VL: B1 VL

Columns and labels:
[1] = biological target: SARS-CoV-2 Omicron BA.5 spike ectodomain trimer, prefusion-stabilised (BA.5-S6P) (SARS-CoV-2 Omicron BA.5, N440K | proline substitutions at 986 and 987 | proline substitutions at 986 and …); assay: cryo-EM structure; settings: both partners purified
[2] = biological target: spike protein on native SARS-CoV-2 virions (Victoria variant) (SARS-CoV-2, Victoria isolate (entry: …, UniProt P0DTC2, strain)); assay: cryo-EM imaging of virions; settings: one partner purified

Binder	stoichiometry N [1]	binding result [2]
B1	3 Fabs per spike trimer	–
B2	–	binds
